Measurements as given in the supplement of paper PMC11780869.

Tested on: Bacillus subtilis
Assay: cleaved RNA product abundance (RNA/gDNA barcode ratio) relative to median wild-type variant (ratio to wild type); higher = more accumulation of the downstream cleavage product
How it was run: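 Reporter mRNAs (truncated aprE or tetM) carrying barcoded, mutagenized RNase Y cleavage-site windows were made from oligos with a 9% error rate and integrated into the B. subtilis chromosome. Cultures grew in LB at 37°C from OD600 0.0003 to 0.3. Cleaved RNA was gel-selected, reverse transcribed and barcode-sequenced alongside genomic DNA barcodes, with UMI collapsing. Cleaved product abundance is the RNA:gDNA barcode ratio per variant, scaled to the median wild-type variant.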

[1] = experiment (reporter, strain, medium): exp 8a: truncated aprE reporter, strain BJT201 with 2% xylose (RNase J1 expressed), cleavage site: glnRA (positions -5 to +31 mutated)
[2] = experiment (reporter, strain, medium): exp 2b: truncated aprE reporter, strain BJT200, cleavage site: cggR-gapA (positions -7 to +36 mutated)
[3] = experiment (reporter, strain, medium): exp 4a: truncated aprE reporter, strain BJT201 with 2% xylose (RNase J1 expressed), cleavage site: cggR-gapA (positions -7 to +36 mutated)
[4] = experiment (reporter, strain, medium): exp 6: tetM reporter, strain 168, cleavage site: cggR-gapA (positions -7 to +36 mutated)

Sequence | cleaved RNA product abundance [1] | cleaved RNA product abundance [2] | cleaved RNA product abundance [3] | further results
CGACATGTCCCGCTTCTTTCATTAATCTGATAGCAACTGTTTTGCTATATACATTTACCTTTTAAGAGGAGGAAT | 0.81 | – | – | –
CGACATGTCCCGCTTCTTTCATTAATCCGTTAGAAACAGTTTTGCTATATATATTTACATTTTAAGAGGAGGAAT | 0.362 | – | – | –
ACAGACGAAGGAGCCGCAAAGAAGTTATTAAGGGATGAATAATAACTCAATATAAATATCTCTCACTTATTTAAA | – | 0.0902 | 0.128 | –
ACAGACGAAGGAGCCGCAAAGAAGTTATTAAGGAATGAATAATCCCTCACTATAAATATCTCTCACTTATTTAAA | – | 0.0964 | – | –
ACAGACGAAGGAGCCGCAAAGAAGATATTAAGGTATGAATAATCTCTCAATATAAATATCTCTCACTTATTTAAA | – | 0.105 | – | –
ACAGACGAAGGAGCCGCAAAGTCGTTATTAAGGGATGAATAATCCCTCAATATAAATATCTCTCACTTATTTAAA | – | – | 0.9 | –
CGACATGTCCCGCTTCTTTCATTAATCCGTTAGTAACTGTTTTGCTATATACACTTACCTTTTAAGAGGAGGAAT | 0.527 | – | – | –
ACAGACGAAGGAGCCGCAAAGAAGTTATTAAGGGATGAATCATCCCACAATATAAATATCTCTCACTTATTTAAA | – | 0.21 | 0.192 | –
ACAGACGAAGGAGCCGCAAAGAAGTTACTAAAGGATGAATAATCCCTCAATATAAATATCTCTCACTTATTTAAA | – | 0.0999 | 0.171 | –
ACAGACGAAGGAGCCGCAAAGAAGTTATTAACGGATGAATAATCCCTCAATATATATATCTCTCACTTATTTAAA | – | 0.158 | 0.152 | –
ACAGACGAAGGAGCCGCAAAGAAGTCATTAAGGGATGAATAATCCCTCAATATAAATATCTCTCACTTATTTAAA | – | 0.186 | 0.255 | cleaved RNA product abundance [4]: 0.244
CGACATGTCCCGCTTCTTTCATTAATCCGTTAGCAACTGTTTTGCTATATACATTTGCCTTTTAAGAGGAGGAAT | 0.413 | – | – | –
ACAGACGAAGGAGCCGCAACGAAGTTATTAAGGGATGAATAATCCCTCAATATAAATAACTCTCACTTATTTAAA | – | 0.695 | 0.827 | –
ACAGACGAAGGAGCCGCAAAGAACTTATTAAGGGATGAATAATCCCCCAATATAAATATCTCTCACTTATTTAAA | – | – | 0.25 | –
CGACATGTCCCGCTTCTTTCATTAATCCGTTAGCAACTGTTTTGCTATAAACATTTAACTTTTAAGAGGAGGAAT | 0.912 | – | – | –
CGACATGTCCCGCTTCTTTCATTAATCCGATAGCAACTGTTTAGCTATATACATTTACCTTTTAAGAGGAGGAAT | 0.822 | – | – | –
CGACATGTCCCGCTTCTTTCATTAATCCCTTAGCAACTGTTTTGCTAAATACATTTACCTTTTAAGAGGAGGAAT | 0.149 | – | – | –
CGACATGTCCCGCTTCTTTCATTAATCCGTTAGCAACTGTTTTGCTATATATATATACCTTTTAAGAGGAGGAAT | 1.12 | – | – | –
ACAGACGAAGGAGCCGCAAAGAAGTTATTTAGGGATGAATAATCCCACAATATAAATATCTCTCACTTATTTAAA | – | – | 0.268 | –
CGACATGTCCCGCTTCTTTCATTAATCCTTTAGCAACTGTTTTGCTATATACATTTACCATTTAAGAGGAGGAAT | 0.837 | – | – | –

Sequence | cleaved RNA product abundance [1] | cleaved RNA product abundance [2] | cleaved RNA product abundance [3] | further results
CGACATGTCCCGCTTCTTTCATTAATCCGTCAGCAACTGTTTTGCTATATACATTTACCTTTTAAGAGGAGGAAT | 0.406 | – | – | –
ACAGACGAAGGAGCCGCAAAGAAGTTATTAAGGGATGAATAATCACTCAACATAAATATCTCTCACTTATTTAAA | – | – | 0.123 | –
ACAGACGAAGGAGCCGCAAAGAAGTTATTAAGGGATAAAAAATCCATCAATATAAATATCTCTCACTTATTTAAA | – | 0.123 | – | –
ACAGACGAAGGAGCCGCAAAGAAGTTATTAATGGATGAATAATCCCTCAATATATATATCTCTCACTTATTTAAA | – | 0.0976 | 0.15 | –
ACAGACGAAGGAGCCGCAAAGAAGTTATTAAGGGAAGAATAATCCCTCAATATAAATATCTCTCACTTATTTAAA | – | 0.485 | 0.633 | cleaved RNA product abundance [4]: 0.691
CGACATGTCCCGCTTCTTTCATTAATCCTTTAGCAACTGTTTTGCTATATACATTGACCTTTTAAGAGGAGGAAT | 0.333 | – | – | –
ACAGACGAAGGAGCCGCAAAGAAGTTTTTATGGGATGAATAATCCCTCAATATAAATATCTCTCACTTATTTAAA | – | – | 0.323 | –
ACAGACGAAGGAGCCGCATAGAAGTTATTAAGGGATGAATAATCCCTTAATATAAATATCTCTCACTTATTTAAA | – | 1.12 | 0.448 | –
ACAGACGAAGGAGCCGCAAAGAAGTTAATAAGGGATGAATAGTCCCTCAATATAAATATCTCTCACTTATTTAAA | – | – | 0.263 | –
ACAGACGAAGGAGCCGCAAAGAAGATATTAAGGGATTAATAATCCCTCAATATAAATATCTCTCACTTATTTAAA | – | – | 0.608 | –
ACAGACGAAGGAGCCGCAAAGAAGTTATTAAGGGAAGAACAATCCCTCAATATAAATATCTCTCACTTATTTAAA | – | – | 0.73 | –
ACAGACGAAGGAGCCGCATAGAACTTATTAAGGGATGAATAATCCCTCAATATAAATATCTCTCACTTATTTAAA | – | 0.341 | 0.499 | –
ACAGACGAAGGAGCCGCAAAGAAGTTATTAAGGGATGAATTATCTCTCAATATAAATATCTCTCACTTATTTAAA | – | 0.318 | 0.37 | –
ACAGACGAAGGAGCCGCAAGGAAGTTATTAAGGGATAAATAATCCCTCAATATAAATATCTCTCACTTATTTAAA | – | 0.888 | 0.919 | –
ACAGACGAAGGAGCCGCAAAGAAGTTATTAAGGGATGAAGAATCCCTCAATATAAATATCTCTCACTTATTTAAA | – | 0.653 | 0.658 | cleaved RNA product abundance [4]: 0.732
ACAGACGAAGGAGCCGCAAAGAAGTTATTAAAGGATGAATAATCCCTCAACATAAATATCTCTCACTTATTTAAA | – | – | 0.265 | –
ACAGACGAAGGAGCCGCGAAGAATTTATTAAGGGATGAATAATCCCTCAATATAAATATCTCTCACTTATTTAAA | – | – | 0.561 | –
ACAGACGAAGGAGCCGCAAAGAAGTTATTAAGGGATGAATAATCTCTCAAAATAAATATCTCTCACTTATTTAAA | – | 0.283 | 0.283 | –
CGACATGTCCCGCTTCTTTCATTATTCCGTTAGCAACTGTTTTGCTATATACATTTATCTTTTAAGAGGAGGAAT | 1.8 | – | – | –
ACAGACGAAGGAGCCGCAAAGAAGTTATTAAGGGATGAATAATCCCTCAATATAAATATATCTCACTTATTTAAA | – | 0.976 | 1.02 | –

Sequence | cleaved RNA product abundance [1] | cleaved RNA product abundance [2] | cleaved RNA product abundance [3] | further results
ACAGACGAAGGAGCCGCAAAGAAGTTATTAAGAGATGAATAATCCCTCGATATAAATATCTCTCACTTATTTAAA | – | – | 0.0848 | –
CGACATGTCCCGCTTCTTTCATTAATCCGTTAACAACTGTTTTGCTATATACATTTACATTTTAAGAGGAGGAAT | 0.202 | – | – | –
CGACATGTCCCGCTTCTTTCATTAATCCATAAGCAACTGTTTTGCTATATACATTTACCTTTTAAGAGGAGGAAT | 0.462 | – | – | –
ACAGACGAAGGAGCCGCAACGAAGTTATTAAGGGATGAATTATCCCTCAATATAAATATCTCTCACTTATTTAAA | – | – | 0.91 | –
CGACATGTCCCGCTTCTTTCATTAATCCGTTAGCAACTGTTTTGCTATATGCATTTAACTTTTAAGAGGAGGAAT | 0.452 | – | – | –
CGACATGTCCCGCTTCTTTCATTAATCCGATAGCAACTCTTTTGCTATATACATTTACCTTTTAAGAGGAGGAAT | 0.19 | – | – | –
ACAGACGAAGGAGCCGCAAAGAAGTTATTAAGGGTTGAATCATCCCTCAATATAAATATCTCTCACTTATTTAAA | – | 0.5 | – | –
ACAGACGAAGGAGCCGCAAAGAAGTTATAAAGGGATGAATATTCCCTCAATATAAATATCTCTCACTTATTTAAA | – | – | 0.281 | –
ACAGACGAAGGAGCCGCAAAGAAGTTACTAAGGGATGAATAAACCCTCAATATAAATATCTCTCACTTATTTAAA | – | – | 0.14 | –
CGACATGTCCCGCTTCTTTCATTAATCCTTTAGCAACTGTTTTGCGATATACATTTACCTTTTAAGAGGAGGAAT | 0.366 | – | – | –
ACAGACGAAGGAGCCGCAAAGAAGTTATTAAGGGATGAATAATCTGTCAATATAAATATCTCTCACTTATTTAAA | – | 0.0956 | 0.123 | –
ACAGACGAAGGAGCCGCAAAGAAATTATTAAGGGATGAATAATCCCTTAATATAAATATCTCTCACTTATTTAAA | – | – | 0.451 | –
ACAGACGAAGGAGCCGCAAAGAAGTTATTAAGGGATGATTAATCCCTCAATATAAACATCTCTCACTTATTTAAA | – | – | 0.559 | –
ACAGACGAAGGAGCCGCAAAGAAATTATTAAGGGATGAATAGTCCCTCAATATAAATATCTCTCACTTATTTAAA | – | – | 0.937 | –
CGACATGTCCCGCTTCTTTCATTAATCCGTTAGAAGCTGTTTTGCTATATACATTTACCTTTTAAGAGGAGGAAT | 0.23 | – | – | –
ACAGACGAAGGAGCCGCAAAGAAGTTATTACGGGATGAATCATCCCTCAATATAAATATCTCTCACTTATTTAAA | – | 0.316 | – | –
CGACATGTCCCGCTTCTTTCATTAATCCGTTAGCAACTGTTATGCTATATACATTTACCTTTTAAGAGGAGGAAT | 0.695 | – | – | –
CGACATGTCCCGCTTCTTTCATTAATCCGTTAGCAACTGTTATTCTATATACATTTACCTTTTAAGAGGAGGAAT | 0.506 | – | – | –
ACAGACGAAGGAGCCGCAAATAAGTTATTAAGGGATGAATAATCCCTCAATATAGATATCTCTCACTTATTTAAA | – | 0.715 | 0.649 | –
CGACATGTCCCGCTTCTTTCATTAATCCGTTAGCAACTGTTTTGCTATATACATTTCCCTTTTAAGAGGAGGAAT | 0.531 | – | – | –
